Publication doi:10.1101/385401 (bioRxiv, 2018)
Where two headings read alike, the source gives them in different places.

Columns and labels:
crystal structure = target: the molecule itself; assay: crystal structure
[1] = target: the molecule itself

B1: Escherichia coli (Ec) dGTPase, wild type (enzyme, UniProt P15723 1-505, looked up)
chain: MAQIDFRKKINWHRRYRSPQGVKTEHEILRIFESDRGRIINSPAIRRLQQKTQVFPLERNAAVRTRLTHSMEVQQVGRYIAKEILSRLKELKLLEAYGLDELTGPFESIVEMSCLMHDIGNPPFGHFGEAAINDWFRQRLHPEDAESQPLTDDRCSVAALRLRDGEEPLNELRRKIRQDLCHFEGNAQGIRLVHTLMRMNLTWAQVGGILKYTRPAWWRGETPETHHYLMKKPGYYLSEEAYIARLRKELNLALYSRFPLTWIMEAADDISYCVADLEDAVEKRIFTVEQLYHHLHEAWGQHEKGSLFSLVVENAWEKSRSNSLSRSTEDQFFMYLRVNTLNKLVPYAAQRFIDNLPAIFAGTFNHALLEDASECSDLLKLYKNVAVKHVFSHPDVERLELQGYRVISGLLEIYRPLLSLSLSDFTELVEKERVKRFPIESRLFHKLSTRHRLAYVEAVSKLPSDSPEFPLWEYYYRCRLLQDYISGMTDLYAWDEYRRLMAVEQ
Crystal structure
  stoichiometry N: 6

B2: selenium methionine labelled Ec-dGTPase (enzyme, Escherichia coli, UniProt P15723 1-505, looked up)
chain: MAQIDFRKKINWHRRYRSPQGVKTEHEILRIFESDRGRIINSPAIRRLQQKTQVFPLERNAAVRTRLTHSMEVQQVGRYIAKEILSRLKELKLLEAYGLDELTGPFESIVEMSCLMHDIGNPPFGHFGEAAINDWFRQRLHPEDAESQPLTDDRCSVAALRLRDGEEPLNELRRKIRQDLCHFEGNAQGIRLVHTLMRMNLTWAQVGGILKYTRPAWWRGETPETHHYLMKKPGYYLSEEAYIARLRKELNLALYSRFPLTWIMEAADDISYCVADLEDAVEKRIFTVEQLYHHLHEAWGQHEKGSLFSLVVENAWEKSRSNSLSRSTEDQFFMYLRVNTLNKLVPYAAQRFIDNLPAIFAGTFNHALLEDASECSDLLKLYKNVAVKHVFSHPDVERLELQGYRVISGLLEIYRPLLSLSLSDFTELVEKERVKRFPIESRLFHKLSTRHRLAYVEAVSKLPSDSPEFPLWEYYYRCRLLQDYISGMTDLYAWDEYRRLMAVEQ
modifications: selenium methionine labelled
Crystal structure
  stoichiometry N: 6

B3: Ec-dGTPase Y272A variant (enzyme, Escherichia coli, UniProt P15723 1-505, looked up)
chain: MAQIDFRKKINWHRRYRSPQGVKTEHEILRIFESDRGRIINSPAIRRLQQKTQVFPLERNAAVRTRLTHSMEVQQVGRYIAKEILSRLKELKLLEAYGLDELTGPFESIVEMSCLMHDIGNPPFGHFGEAAINDWFRQRLHPEDAESQPLTDDRCSVAALRLRDGEEPLNELRRKIRQDLCHFEGNAQGIRLVHTLMRMNLTWAQVGGILKYTRPAWWRGETPETHHYLMKKPGYYLSEEAYIARLRKELNLALYSRFPLTWIMEAADDISACVADLEDAVEKRIFTVEQLYHHLHEAWGQHEKGSLFSLVVENAWEKSRSNSLSRSTEDQFFMYLRVNTLNKLVPYAAQRFIDNLPAIFAGTFNHALLEDASECSDLLKLYKNVAVKHVFSHPDVERLELQGYRVISGLLEIYRPLLSLSLSDFTELVEKERVKRFPIESRLFHKLSTRHRLAYVEAVSKLPSDSPEFPLWEYYYRCRLLQDYISGMTDLYAWDEYRRLMAVEQ
[1]
  stoichiometry N: 6

B4: Ec-dGTPase H126A variant (enzyme, Escherichia coli, UniProt P15723 1-505, looked up)
chain: MAQIDFRKKINWHRRYRSPQGVKTEHEILRIFESDRGRIINSPAIRRLQQKTQVFPLERNAAVRTRLTHSMEVQQVGRYIAKEILSRLKELKLLEAYGLDELTGPFESIVEMSCLMHDIGNPPFGAFGEAAINDWFRQRLHPEDAESQPLTDDRCSVAALRLRDGEEPLNELRRKIRQDLCHFEGNAQGIRLVHTLMRMNLTWAQVGGILKYTRPAWWRGETPETHHYLMKKPGYYLSEEAYIARLRKELNLALYSRFPLTWIMEAADDISYCVADLEDAVEKRIFTVEQLYHHLHEAWGQHEKGSLFSLVVENAWEKSRSNSLSRSTEDQFFMYLRVNTLNKLVPYAAQRFIDNLPAIFAGTFNHALLEDASECSDLLKLYKNVAVKHVFSHPDVERLELQGYRVISGLLEIYRPLLSLSLSDFTELVEKERVKRFPIESRLFHKLSTRHRLAYVEAVSKLPSDSPEFPLWEYYYRCRLLQDYISGMTDLYAWDEYRRLMAVEQ
[1]
  stoichiometry N: 6

B5: Ec-dGTPase E129A variant (enzyme, Escherichia coli, UniProt P15723 1-505, looked up)
chain: MAQIDFRKKINWHRRYRSPQGVKTEHEILRIFESDRGRIINSPAIRRLQQKTQVFPLERNAAVRTRLTHSMEVQQVGRYIAKEILSRLKELKLLEAYGLDELTGPFESIVEMSCLMHDIGNPPFGHFGAAAINDWFRQRLHPEDAESQPLTDDRCSVAALRLRDGEEPLNELRRKIRQDLCHFEGNAQGIRLVHTLMRMNLTWAQVGGILKYTRPAWWRGETPETHHYLMKKPGYYLSEEAYIARLRKELNLALYSRFPLTWIMEAADDISYCVADLEDAVEKRIFTVEQLYHHLHEAWGQHEKGSLFSLVVENAWEKSRSNSLSRSTEDQFFMYLRVNTLNKLVPYAAQRFIDNLPAIFAGTFNHALLEDASECSDLLKLYKNVAVKHVFSHPDVERLELQGYRVISGLLEIYRPLLSLSLSDFTELVEKERVKRFPIESRLFHKLSTRHRLAYVEAVSKLPSDSPEFPLWEYYYRCRLLQDYISGMTDLYAWDEYRRLMAVEQ
[1]
  stoichiometry N: 6
